Experimental findings from the supplement of paper PMC5998384 are described below.

For series [1], the system named is HeLa Kyoto. Put plainly: solubility in G1/S (NP-40 vs SDS abundance) (log2 ratio); higher = more soluble. The note with it: cell cycle stage: G1/S.
Series [2] relates to HeLa Kyoto. Put plainly: melting temperature (median over replicates), in situ; higher = more thermally stable.
Series [3] relates to HeLa Kyoto. Put plainly: solubility change mitosis vs G1/S (difference of NP-40 vs SDS log2 ratios) (log2 ratio difference); higher = more soluble in mitosis.
The test system of series [4] is HeLa Kyoto. Put plainly: thermal stability score vs G1/S (z-score of summed log2 fold changes over temperatures); higher = more thermally stable than in G1/S.
Setting [5] is: cell cycle stage: early G1 (4.5 h after nocodazole release).
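Wherever melting temperature (median over replicates), in situ is given: HeLa Kyoto cells synchronized by double thymidine or nocodazole block, proteins quantified by TMT10plex mass spectrometry, three independent biological replicates.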
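Wherever solubility change mitosis vs G1/S (difference of NP-40 vs SDS log2 ratios) is given: synchronized HeLa Kyoto cells (double thymidine block for G1/S, nocodazole release for mitosis), protein amounts in NP-40 versus SDS lysates quantified by mass spectrometry, three biological replicates.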
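Wherever solubility in G1/S (NP-40 vs SDS abundance) is given: HeLa Kyoto cells arrested at G1/S by double thymidine block, proteins quantified by TMT10plex mass spectrometry in mild NP-40 versus SDS extracts, three biological replicates.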
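Wherever thermal stability score vs G1/S (z-score of summed log2 fold changes over temperatures) is given: synchronized HeLa Kyoto cells, proteins quantified by TMT10plex mass spectrometry, three biological replicates, mitosis taken 0.5 h after nocodazole release, G1/S directly after double thymidine block.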

With “MFEEPEWAEAAPVAAGLGPVISRPPPAASSQNKGSKRRQLLATLRALEAASLSQHPPSLCISDSEEEEEERKKKCPKKASFASASAEVGKKGKKKCQKQGPPCSDSEEEVERKKKCHKQALVGSDSAEDEKRKRKCQKHAPINSAQHLDNVDQTGPKAWKGSTTNDPPKQSPGSTSPKPPHTLSRKQWRNRQKNKRRCKNKFQPPQVPDQAPAEAPTEKTEVSPVPRTDSHEARAGALRARMAQRLDGARFRYLNEQLYSGPSSAAQRLFQEDPEAFLLYHRGFQSQVKKWPLQPVDRIARDLRQRPASLVVADFGCGDCRLASSIRNPVHCFDLASLDPRVTVCDMAQVPLEDESVDVAVFCLSLMGTNIRDFLEEANRVLKPGGLLKVAEVSSRFEDVRTFLRAVTKLGFKIVSKDLTNSHFFLFDFQKTGPPLVGPKAQLSGLQLQPCLYKRR [RRP8]”, in the series on HeLa Kyoto [1], the “solubility in G1/S (log2)” value is -1.46. For the same sequence, the melting temperature in the series with HeLa Kyoto [2] (cell cycle stage: G1/S) is 49.1 °C; in the series on HeLa Kyoto [2] (cell cycle stage: mitosis), 51.7 °C. Further, the “solubility change mitosis (log2)” value in the series on HeLa Kyoto [3] turned out to be 0.852. The values for the thermal stability score with HeLa Kyoto [4] (setting [5]) and in the series on HeLa Kyoto [4] (cell cycle stage: mitosis) were 1.48 and 2.48, respectively.
“MFFWCACCLMVAWRVSASDAEHCPELPPVDNSIFVAKEVEGQILGTYVCIKGYHLVGKKTLFCNASKEWDNTTTECRLGHCPDPVLVNGEFSSSGPVNVSDKITFMCNDHYILKGSNRSQCLEDHTWAPPFPICKSRDCDPPGNPVHGYFEGNNFTLGSTISYYCEDRYYLVGVQEQQCVDGEWSSALPVCKLIQEAPKPECEKALLAFQESKNLCEAMENFMQQLKESGMTMEELKYSLELKKAELKAKLL [C4BPB]”: the “solubility in G1/S (log2)” value in the series on HeLa Kyoto [1] stood at 0.187. The melting temperature in the series with HeLa Kyoto [2] (cell cycle stage: G1/S) and in the series on HeLa Kyoto [2] (cell cycle stage: mitosis) was 54.8 °C each time. For the same sequence, the “solubility change mitosis (log2)” value in the series with HeLa Kyoto [3] was -0.0172. For the same sequence, the values for the thermal stability score with HeLa Kyoto [4] (setting [5]) and in the series on HeLa Kyoto [4] (cell cycle stage: mitosis) were 5.14 and 5.56, respectively.
For the sequence “MFGAAGRQPIGAPAAGNSWHFSRTMEELVHDLVSALEESSEQARGGFAETGDHSRSISCPLKRQARKRRGRKRRSYNVHHPWETGHCLSEGSDSSLEEPSKDYRENHNNNKKDHSDSDDQMLVAKRRPSSNLNNNVRGKRPLWHESDFAVDNVGNRTLRRRRKVKRMAVDLPQDISNKRTMTQPPEGCRDQDMDSDRAYQYQEFTKNKVKKRKLKIIRQGPKIQDEGVVLESEETNQTNKDKMECEEQKVSDELMSESDSSSLSSTDAGLFTNDEGRQGDDEQSDWFYEKESGGACGITGVVPWWEKEDPTELDKNVPDPVFESILTGSFPLMSHPSRRGFQARLSRLHGMSSKNIKKSGGTPTSMVPIPGPVGNKRMVHFSPDSHHHDHWFSPGARTEHDQHQLLRDNRAERGHKKNCSVRTASRQTSMHLGSLCTGDIKRRRKAAPLPGPTTAGFVGENAQPILENNIGNRMLQNMGWTPGSGLGRDGKGISEPIQAMQRPKGLGLGFPLPKSTSATTTPNAGKSA [GPATCH2]”, in the series on HeLa Kyoto [1], the “solubility in G1/S (log2)” value was found to be 0.0278. Also, the melting temperature with HeLa Kyoto [2] (cell cycle stage: G1/S) was found to be 51.7 °C; in the series on HeLa Kyoto [2] (cell cycle stage: mitosis), 53 °C. Besides, in the series on HeLa Kyoto [3], the “solubility change mitosis (log2)” value was -0.0138. Also, the figures for the thermal stability score with HeLa Kyoto [4] (setting [5]) and in the series on HeLa Kyoto [4] (cell cycle stage: mitosis) were -0.791 and -1.01, respectively.
As to “MFGAGDEDDTDFLSPSGGARLASLFGLDQAAAGHGNEFFQYTAPKQPKKGQGTAATGNQATPKTAPATMSTPTILVATAVHAYRYTNGQYVKQGKFGAAVLGNHTAREYRILLYISQQQPVTVARIHVNFELMVRPNNYSTFYDDQRQNWSIMFESEKAAVEFNKQVCIAKCNSTSSLDAVLSQDLIVADGPAVEVGDSLEVAYTGWLFQNHVLGQVFDSTANKDKLLRLKLGSGKVIKGWEDGMLGMKKGGKRLLIVPPACAVGSEGVIGWTQATDSILVFEVEVRRVKFARDSGSDGHSVSSRDSAAPSPIPGADNLSADPVVSPPTSIPFKSGEPALRTKSNSLSEQLAINTSPDAVKAKLISRMAKMGQPMLPILPPQLDSNDSEIEDVNTLQGGGQPVVTPSVQPSLHPAHPALPQMTSQAPQPSVTGLQAPSAALMQVSSLDSHSAVSGNAQSFQPYAGMQAYAYPQASAVTSQLQPVRPLYPAPLSQPPHFQGSGDMASFLMTEARQHNTEIRMAVSKVADKMDHLMTKVEELQKHSAGNSMLIPSMSVTMETSMIMSNIQRIIQENERLKQEILEKSNRIEEQNDKISELIERNQRYVEQSNLMMEKRNNSLQTATENTQARVLHAEQEKAKVTEELAAATAQVSHLQLKMTAHQKKETELQMQLTESLKETDLLRGQLTKVQAKLSELQETSEQAQSKFKSEKQNRKQLELKVTSLEEELTDLRVEKESLEKNLSERKKKSAQERSQAEEEIDEIRKSYQEELDKLRQLLKKTRVSTDQAAAEQLSLVQAELQTQWEAKCEHLLASAKDEHLQQYQEVCAQRDAYQQKLVQLQEKCLALQAQITALTKQNEQHIKELEKNKSQMSGVEAAASDPSEKVKKIMNQVFQSLRREFELEESYNGRTILGTIMNTIKMVTLQLLNQQEQEKEESSSEEEEEKAEERPRRPSQEQSASASSGQPQAPLNRERPESPMVPSEQVVEEAVPLPPQALTTSQDGHRRKGDSEAEALSEIKDGSLPPELSCIPSHRVLGPPTSIPPEPLGPVSMDSECEESLAASPMAAKPDNPSGKVCVREVAPDGPLQESSTRLSLTSDPEEGDPLALGPESPGEPQPPQLKKDDVTSSTGPHKELSSTEAGSTVAGAALRPSHHSQRSSLSGDEEDELFKGATLKALRPKAQPEEEDEDEVSMKGRPPPTPLFGDDDDDDDIDWLG [FKBP15]”, the “solubility in G1/S (log2)” value in the series with HeLa Kyoto [1] was determined as 0.0656. For the same sequence, the figures for the melting temperature in the series with HeLa Kyoto [2] (cell cycle stage: G1/S) and in the series with HeLa Kyoto [2] (cell cycle stage: mitosis) were 49.6 °C and 50 °C, respectively. Further, the “solubility change mitosis (log2)” value in the series with HeLa Kyoto [3] was -0.0387. Besides, the thermal stability score was -0.146 in the series with HeLa Kyoto [4] (setting [5]) and 1.12 in the series on HeLa Kyoto [4] (cell cycle stage: mitosis).
With “MFHLRTCAAKLRPLTASQTVKTFSQNRPAAARTFQQIRCYSAPVAAEPFLSGTSSNYVEEMYCAWLENPKSVHKSWDIFFRNTNAGAPPGTAYQSPLPLSRGSLAAVAHAQSLVEAQPNVDKLVEDHLAVQSLIRAYQIRGHHVAQLDPLGILDADLDSSVPADIISSTDKLGFYGLDESDLDKVFHLPTTTFIGGQESALPLREIIRRLEMAYCQHIGVEFMFINDLEQCQWIRQKFETPGIMQFTNEEKRTLLARLVRSTRFEEFLQRKWSSEKRFGLEGCEVLIPALKTIIDKSSENGVDYVIMGMPHRGRLNVLANVIRKELEQIFCQFDSKLEAADEGSGDVKYHLGMYHRRINRVTDRNITLSLVANPSHLEAADPVVMGKTKAEQFYCGDTEGKKVMSILLHGDAAFAGQGIVYETFHLSDLPSYTTHGTVHVVVNNQIGFTTDPRMARSSPYPTDVARVVNAPIFHVNSDDPEAVMYVCKVAAEWRSTFHKDVVVDLVCYRRNGHNEMDEPMFTQPLMYKQIRKQKPVLQKYAELLVSQGVVNQPEYEEEISKYDKICEEAFARSKDEKILHIKHWLDSPWPGFFTLDGQPRSMSCPSTGLTEDILTHIGNVASSVPVENFTIHGGLSRILKTRGEMVKNRTVDWALAEYMAFGSLLKEGIHIRLSGQDVERGTFSHRHHVLHDQNVDKRTCIPMNHLWPNQAPYTVCNSSLSEYGVLGFELGFAMASPNALVLWEAQFGDFHNTAQCIIDQFICPGQAKWVRQNGIVLLLPHGMEGMGPEHSSARPERFLQMCNDDPDVLPDLKEANFDINQLYDCNWVVVNCSTPGNFFHVLRRQILLPFRKPLIIFTPKSLLRHPEARSSFDEMLPGTHFQRVIPEDGPAAQNPENVKRLLFCTGKVYYDLTRERKARDMVGQVAITRIEQLSPFPFDLLLKEVQKYPNAELAWCQEEHKNQGYYDYVKPRLRTTISRAKPVWYAGRDPAAAPATGNKKTHLTELQRLLDTAFDLDVFKNFS [OGDH]”, the “solubility in G1/S (log2)” value in the series on HeLa Kyoto [1] came to 0.0621. Further, the melting temperature turned out to be 52 °C with HeLa Kyoto [2] (cell cycle stage: G1/S) and 51.7 °C with HeLa Kyoto [2] (cell cycle stage: mitosis). The “solubility change mitosis (log2)” value in the series on HeLa Kyoto [3] is -0.178. Moreover, the thermal stability score in the series on HeLa Kyoto [4] (setting [5]) is -0.752; in the series on HeLa Kyoto [4] (cell cycle stage: mitosis), -1.63.
